Changes are numbered by the printed parent chain.
B1: GST-PQ: GST-tagged residues 1898–2035 of the rat P/Q channel α1 subunit, encompassing IQ motif and CBD (protein, UniProt P54282 1898-2035, looked up, fragment)
chain: KSTDLTVGKIYAAMMIMEYYRQSKAKKLQAMREEQNRTPLMFQRMEPPSPTQEGGPSQNALPSTQLDPGGGLMAQESSMKESPSWVTQRAQEMFQKTGTWSPERGPPIDMPNSQPNSQSVEMREMGTDGYSDSEHYLP
modifications: GST tag
notes: GST-tagged residues 1898–2035 of the rat P/Q channel α1 subunit, encompassing IQ motif and CBD
B2: GST^IM→EE: GST-PQ with IM residues at positions 1913 and 1914 mutated to glutamic acid (protein, UniProt P54282 1898-2035, looked up, variant I1913E M1914E)
chain: B1 chain with I16E, M17E
modifications: GST tag
notes: GST-PQ with IM residues at positions 1913 and 1914 mutated to glutamic acid
B3: ^myrPQ-YFP: C-terminally YFP-tagged P/Q 1898–2035 with N-terminal myristoylation consensus sequence (protein, UniProt P54282 1898-2035, looked up, fragment)
chain: B1 chain
modifications: N-terminal myristoylation sequence, C-terminal YFP tag
B4: GST-CBD: GST-tagged CaM-binding domain, residues 1950–2035 of the rat P/Q channel α1 subunit (protein, UniProt P54282 1950-2035, looked up, fragment)
chain: EGGPSQNALPSTQLDPGGGLMAQESSMKESPSWVTQRAQEMFQKTGTWSPERGPPIDMPNSQPNSQSVEMREMGTDGYSDSEHYLP
modifications: GST tag

Experiments:
CaM = assay: In vitro pull-down binding of CaM to GST-PQ constructs, Western blot; set-up: species or system human; conditions: presence or absence of 1 μM free Ca2+
Text: DNA constructs and molecular biology GST-NCS-1[24] and NCS-1-mCherry[18] plasmids were as previously described. The coding sequence for human CaM was amplified by polymerase chain reaction (PCR) from oligo-dT(15)-primed HeLa cell RNA and reverse-transcribed first-strand cDNA template with the following primer pair (based on GenBank accession number M19311) containing restriction endonuclease sites (underlined) for subcloning into N-terminal GST tag vector pGex6P-1 (Amersham Biosciences): sense (BamHI), 5′-[…]-3′; antisense (XhoI), 5′-[…]-3′. GST-P/Q, encoding residues 1898–2035 of the rat P/Q channel α1 subunit (GenBank accession number NM_012918) was amplified by PCR from a rat brain single-strand cDNA template with the following primer pair containing restriction endonuclease sites (underlined) for subcloning into pGex6P-1: sense (BamHI), 5′-[…]-3′; antisense (XhoI), 5′-[…]-3′. GST-CBD (residues 1950–2035) of the rat P/Q channel α1 subunit was amplified by PCR from the GST-P/Q template using the P/Q reverse primer and a sense primer containing a BamHI site (underlined) for subsequent subcloning into pGex6P-1 (5′-[…]-3′). GST-P/Q^IM→EE was generated by site-directed mutagenesis of the GST-P/Q plasmid using the QuikChange reagents and protocol (Agilent Technologies) and the following primer pair: sense, 5′-[…]-3′; antisense, 5′-[…]-3′.
For the In vitro protein binding assays, 5 μM GST fusion protein (GST-P/Q, GST-P/Q^IM→EE, or GST-CBD) was immobilized onto 30 μL of glutathione-agarose resin (Thermo Scientific) that had been prewashed in binding buffer (BB) [150 mM KCl, 20 mM HEPES (pH 7.4), 10% (v/v) glycerol, 5 mM NTA, 5 mM EGTA, 1 mM DTT, and 0.1% (v/v) NP-40] or BB supplemented with 1 μM free Ca^2+ (BB+Ca^2+) by incubation for 30 min with constant agitation at 4 °C. […]
Nitrocellulose filters were blocked by incubation in a blocking solution [3% (w/v) skim milk powder in PBS] for 1 h at room temperature. […] Densitometry analysis of developed Western blots was performed using Quantity-1 (Bio-Rad). […]

NCS-1 = molecular target: T1, NCS-1 (Homo sapiens, UniProt P62166); assay: In vitro pull-down binding of NCS-1 to GST-PQ constructs, Western blot densitometry; conditions: for average NCS-1 bound: 5 μM GST fusion protein, 5 μM NCS-1, 1 h, 4 °C, pH 7.4, normalized: NCS-1 bound to GST-PQ with Ca2+ = 100%, minimal binding without Ca2+ = 0%, mean of n = 3
T1 construct: His tag (TEV-cleavable) (N, cleaved yes); made in house; host or cells: Escherichia coli BL21(DE3)
T1 sequence (P62166 whole entry, species assumed, the tested form may be a part): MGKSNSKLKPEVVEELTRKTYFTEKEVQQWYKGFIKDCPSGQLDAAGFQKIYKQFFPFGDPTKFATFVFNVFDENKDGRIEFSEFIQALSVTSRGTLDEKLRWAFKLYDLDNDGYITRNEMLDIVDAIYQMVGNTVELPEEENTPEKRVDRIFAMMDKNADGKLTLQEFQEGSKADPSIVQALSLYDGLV

HeLa cells = assay: Localization of fluorescently tagged proteins in HeLa cells, confocal imaging, puncta scoring; assay type: cell-based; conditions: for cells with puncta: 24 h post-transfection, means ± SEM
Text: Myristoylated PQ (residues 1898–2035, ^myrPQ-YFP) was constructed as follows. A DNA fragment encoding the myristoylation sequence taken from ref ([25]) was inserted between the XhoI and HindIII sites of pEYFP-N1 (Clontech) to generate p^myrEYFP-N1. PQ^1898–2035 was amplified by PCR from the existing pGex template with the following primer pair containing restriction endonuclease sites (underlined) for subsequent subcloning into p^myrEYFP-N1: sense (HindIII), 5′-ATAT AAGCTTAAGTCCACGGACCTGACAGTG-3′; antisense (SacII), 5′-ATAT CCGCGGGGGGAGGTAGTGTTCGCTGTC-3′. All constructs were verified by dideoxy sequencing (The Sequencing Service, University of Dundee, Dundee, U.K.).
HeLa cells were cultured in DMEM supplemented with 10% (v/v) fetal bovine serum, 1% (v/v) penicillin/streptomycin, and 1% (v/v) nonessential amino acids. All cells were maintained in a humidified 95% air/5% CO2 atmosphere at 37 °C. Cells were plated onto sterile 13 mm round coverslips at a density of 0.25 × 10^6 cells/well. After 24 h, cells were transiently transfected with the indicated expression vectors using GeneJuice transfection reagent (Novagen) according to the manufacturer’s protocol. For single and double transfections, 1 μg of each plasmid was used.
Twenty-four hours post-transfection, cells on coverslips were washed with phosphate-buffered saline [137 mM NaCl, 2.7 mM KCl, 10 mM Na2PO4, and 2 mM NaH2PO4 (pH 7.4)] and then fixed with 4% (v/v) formaldehyde in PBS for 6 min at room temperature. Coverslips were subsequently air-dried and mounted onto microscope slides using Prolong antifade glycerol (Life Technologies). Fixed cells were imaged using a Leica TCS-SP2 confocal system (Leica Microsystems, Heidelberg, Germany) with a pinhole set to 1 Airy unit and a 63× oil immersion objective with a numerical aperture of 1.3. Images were exported as TIFF files and compiled, processed, and analyzed with ImageJ and CorelDraw X6 applications.

[1] = without Ca2+ (5 mM EGTA, 5 mM NTA)

Row | Molecule | CaM binding (qualitative) (CaM) | NCS-1 binding (qualitative) (NCS-1; presence or absence of 1 μM free Ca2+, Western blot) | average NCS-1 bound (NCS-1; with Ca2+ (1 μM free Ca2+)) | average NCS-1 bound (NCS-1; [1]) | cellular localization (HeLa cells; HeLa cells, without myrPQ-YFP puncta) | colocalization of soluble mCherry with myrPQ-YFP (HeLa cells; control cotransfection with soluble mCherry, data not shown) | cells with puncta (HeLa cells; control myrPQ-YFP + mCherry, three independent experiments) | cells with puncta (HeLa cells; cotransfected NCS-1-mCherry + myrPQ-YFP, four independent experiments)
1 | B1 | Ca^2+-dependent binding | Ca^2+-dependent binding | 100% | 31.2% | – | – | – | –
2 | B2 | no detectable binding | – | – | 2.8% | – | – | – | –
3 | B3 | – | – | – | – | plasma membrane and/or large cytosolic puncta | no colocalization | 43.6 ± 3% | 39.5 ± 9.2%
4 | B4 | no detectable binding | – | – | 4.9% | – | – | – | –

From publication PMC4180279 (Biochemistry, 2014)
